# Legend:
# [1] = target: ABL (UniProt P00519)
# [2] = target: BRD4 (UniProt O60885)
# [3] = target: BTK (UniProt Q06187)
# BTK, sequence (Q06187 whole entry): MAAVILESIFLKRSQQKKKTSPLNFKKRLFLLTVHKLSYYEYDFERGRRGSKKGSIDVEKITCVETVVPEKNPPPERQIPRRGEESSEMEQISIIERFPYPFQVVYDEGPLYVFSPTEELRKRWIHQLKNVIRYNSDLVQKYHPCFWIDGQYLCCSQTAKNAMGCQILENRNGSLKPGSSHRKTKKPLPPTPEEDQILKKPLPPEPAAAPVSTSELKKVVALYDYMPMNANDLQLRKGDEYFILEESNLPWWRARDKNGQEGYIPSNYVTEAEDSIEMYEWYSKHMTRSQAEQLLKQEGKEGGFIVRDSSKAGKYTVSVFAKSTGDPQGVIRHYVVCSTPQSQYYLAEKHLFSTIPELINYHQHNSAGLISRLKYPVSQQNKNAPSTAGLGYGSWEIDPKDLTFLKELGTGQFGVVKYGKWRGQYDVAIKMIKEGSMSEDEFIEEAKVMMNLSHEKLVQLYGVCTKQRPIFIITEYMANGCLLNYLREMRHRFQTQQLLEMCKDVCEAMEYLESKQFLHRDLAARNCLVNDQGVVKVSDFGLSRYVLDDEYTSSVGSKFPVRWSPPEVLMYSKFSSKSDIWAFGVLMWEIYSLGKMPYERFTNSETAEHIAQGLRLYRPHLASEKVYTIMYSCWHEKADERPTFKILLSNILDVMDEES
# ABL, sequence (P00519 whole entry): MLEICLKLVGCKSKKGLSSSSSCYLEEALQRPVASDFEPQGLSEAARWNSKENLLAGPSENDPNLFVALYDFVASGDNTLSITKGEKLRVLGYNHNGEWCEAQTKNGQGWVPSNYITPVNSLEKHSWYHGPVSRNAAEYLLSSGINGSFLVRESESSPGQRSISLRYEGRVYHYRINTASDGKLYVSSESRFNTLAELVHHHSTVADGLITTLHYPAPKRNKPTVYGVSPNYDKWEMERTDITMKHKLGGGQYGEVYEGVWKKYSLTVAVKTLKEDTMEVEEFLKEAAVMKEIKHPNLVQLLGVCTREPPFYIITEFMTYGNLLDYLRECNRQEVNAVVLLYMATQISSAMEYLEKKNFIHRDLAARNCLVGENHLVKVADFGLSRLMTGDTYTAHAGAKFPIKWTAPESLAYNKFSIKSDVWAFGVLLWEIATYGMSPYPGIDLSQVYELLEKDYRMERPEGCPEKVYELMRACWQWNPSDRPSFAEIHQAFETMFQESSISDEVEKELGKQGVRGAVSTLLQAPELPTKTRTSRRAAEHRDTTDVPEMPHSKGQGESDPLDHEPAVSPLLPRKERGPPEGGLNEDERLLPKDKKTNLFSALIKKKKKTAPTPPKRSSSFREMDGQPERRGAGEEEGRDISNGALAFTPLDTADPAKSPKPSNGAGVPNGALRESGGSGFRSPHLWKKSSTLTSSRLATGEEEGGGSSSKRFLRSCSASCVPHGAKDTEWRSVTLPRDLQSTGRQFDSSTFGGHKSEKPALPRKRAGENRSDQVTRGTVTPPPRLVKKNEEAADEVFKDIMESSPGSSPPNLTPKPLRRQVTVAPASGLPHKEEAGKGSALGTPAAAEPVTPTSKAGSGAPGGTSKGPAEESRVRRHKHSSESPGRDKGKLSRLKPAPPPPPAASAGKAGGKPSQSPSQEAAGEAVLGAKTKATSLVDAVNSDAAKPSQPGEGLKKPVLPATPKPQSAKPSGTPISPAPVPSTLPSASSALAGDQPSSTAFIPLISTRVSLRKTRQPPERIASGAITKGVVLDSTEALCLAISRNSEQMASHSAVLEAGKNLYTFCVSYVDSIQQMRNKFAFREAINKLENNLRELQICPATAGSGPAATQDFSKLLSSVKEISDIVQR
substance,measurement,setting,value
PKC,"phosphorylation of ABL by PKC in vitro, with PHICS5",[1],"An ABL-targeting PHICS5 formed using dihydropyrazole core also induced phosphorylation of ABL, compare to DMSO or activator VS1012 treated controls"
same,"phosphorylation of ABL by PKC in vitro, with VS558",[1],"bifunctional molecule VS558 based on a known inhibitor dasatinib, that binds to a different pocket of ABL kinase [16], also induced its phosphorylation by PKC in vitro"
same,"phosphorylation of BRD4 by PKC in vitro, with PHICS4",[2],BRD4 phosphorylation was detected in the presence of PHICS4
same,"phosphorylation of BRD4 by PKC in vitro, with the chimeric molecule made from (R)-JQ1",[2],"absence of phosphorylation when a chimeric molecule generated from the inactive enantiomer of (S)-JQ1 [i.e., (R)-JQ1] was used"
same,"phosphorylation of BTK by PKC in vitro, with PHICS6 (PKC-motif antibody)",[3],the degree of phosphorylation was higher in the presence of PHICS6
same,"phosphorylation of BTK by PKC in vitro, with the inactive analog iPHICS6",[3],the inactive PHICS analogs lowered phosphorylation induction
same,"phosphorylation of BTK by PKC in vitro, without PHICS (PKC-motif antibody)",[3],some phosphorylation of BTK by PKC was observed in the absence of PHICS (quantified using PKC-motif antibody)

# Reference: patent US20240024490
